Biological target: T1, human C1q (human, UniProt P02745 23-245; P02746 28-253; P02747 29-245)
T1 construct: also called first component of the classical complement cascade
Assay: ELISA, antibody coated, C1q detected with rabbit anti-human C1q
Procedure: In short, microtiter ELISA plates (Greiner, Germany) were coated overnight at RT with the test antibodies serially diluted from 10 μg/ml to 0.06 μg/ml in PBS. Plates were emptied and wells were blocked with 200 μl ELISA-diluent per well (0.1 M NaPO₄, 0.1 M NaCl, 0.1% gelatin and 0.05% Tween-20), at RT for 30 minutes. […] After washing the plates (3×) with PBST, wells were incubated with HRP-conjugated swine anti-rabbit IgG-Fc (DAKO, P0300, lot #069) diluted in ELISA diluent (1:2500, 100 μl/well, RT, 1 hour). Thereafter, plates were washed thrice and assays were developed with freshly prepared 1 mg/ml ABTS solution (ABTS: 2,2′-azino-bis[3-ethylbenzthiazoline-6-sulfonic acid]); 2 tablets of 5 mg in 10 ml ABTS buffer, Boehringer Mannheim, Ingelheim, Germany) at RT in the dark for 30 minutes. Absorbance was measured at 405 nm in an ELISA plate reader (Biotek Instruments Inc., Winooski, USA).

T1 sequence (P02745 23-245, chain 1 of 3): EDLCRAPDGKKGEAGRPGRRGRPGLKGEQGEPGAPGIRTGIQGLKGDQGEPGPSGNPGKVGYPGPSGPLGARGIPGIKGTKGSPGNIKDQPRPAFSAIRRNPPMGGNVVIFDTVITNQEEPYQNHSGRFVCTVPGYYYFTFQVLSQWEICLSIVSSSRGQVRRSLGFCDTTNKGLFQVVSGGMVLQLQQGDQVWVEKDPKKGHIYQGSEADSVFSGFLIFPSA
T1 sequence (P02746 28-253, chain 2 of 3): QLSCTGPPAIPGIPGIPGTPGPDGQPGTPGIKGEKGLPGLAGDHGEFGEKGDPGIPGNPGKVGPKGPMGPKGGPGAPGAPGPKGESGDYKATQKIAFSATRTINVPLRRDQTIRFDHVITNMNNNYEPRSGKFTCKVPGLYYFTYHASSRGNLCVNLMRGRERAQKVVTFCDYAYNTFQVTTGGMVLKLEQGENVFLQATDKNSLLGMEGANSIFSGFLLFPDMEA
T1 sequence (P02747 29-245, chain 3 of 3): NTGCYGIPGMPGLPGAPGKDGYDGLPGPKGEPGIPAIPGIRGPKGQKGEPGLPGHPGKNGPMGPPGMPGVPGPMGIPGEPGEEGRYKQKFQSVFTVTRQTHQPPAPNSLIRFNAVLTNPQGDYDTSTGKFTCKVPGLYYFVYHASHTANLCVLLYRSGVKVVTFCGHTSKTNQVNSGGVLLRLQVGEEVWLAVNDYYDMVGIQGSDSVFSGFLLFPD

B1: 7D8-HG (antibody)
heavy: EVQLVESGGGLVQPDRSLRLSCAASGFTFHDYAMHWVRQAPGKGLEWVSTISWNSGTIGYADSVKGRFTISRDNAKNSLYLQMNSLRAEDTALYYCAKDIQYGNYYYGMDVWGQGTTVTVSSASTKGPSVFPLAPCSRSTSESTAALGCLVKDYFPEPVTVSWNSGALTSGVHTFPAVLQSSGLYSLSSVVTVPSSSLGTKTYTCNVDHKPSNTKVDKRVAPEFLGGPSVFLFPPKPKDTLMISRTPEVTCVVVDVSQEDPEVQFNWYVDGVEVHNAKTKPREEQFNSTYRVVSVLTVLHQDWLNGKEYKCKVSNKGLPSSIEKTISKAKGQPREPQVYTLPPSQEEMTKNQVSLTCLVKGFYPSDIAVEWESNGQPENNYKTTPPVLDSDGSFFLYSRLTVDKSRWQEGNVFSCSVMHEALHNHYTQKSLSLSLGK
light: not shown
notes: Half-molecule of one heavy and one light chain (SDS-PAGE, MS 71520 Da); also called HuMab 7D8-HG; hingeless IgG4 anti-CD20
B1: no binding.

From patent publication US20090226421A1 (Genmab, published 2009)
